The values that follow come from patent US20110189095A1 (University of Texas, published 2011).

Bridge positions count the residues as written; N and C are the ends. Ends that are not written are not given here.

The chains are these.
B3: recombinant His-tag CRKL (rCRKL) (other)
chain: MSSARFDSSDRSAWYMGPVSRQEAQTRLQGQRHGMFLVRDSSTCPGDYVLSVSENSRVSHYIINSLPNRRFKIGDQEFDHLPALLEFYKIHYLDTTTLIEPAPRYPSPPMGSVSAPNLPTAEDNLEYVRTLYDFPGNDAEDLPFKKGEILVIIEKPEEQWWSARNKDGRVGMIPVPYVEKLVRSSPHGKHGNRNSNSYGIPEPAHAYAQPQTTTPLPAVSGSPGAAITPLPSTQNGPVFAKAIQKRVPCAYDKTALALEVGDIVKVTRMNINGQWEGEVNGRKGLFPFTHVKIFDPQNPDENE
notes: Open reading frame of full-length CRKL cDNA cloned in pET28a, expressed in BL21; also called recombinant CRKL; rCKRL protein; not shown: His-tag from pET28a vector
B4: β3 integrin of DU145 cells (receptor, human, UniProt P05106 27-788, looked up)
chain: GPNICTTRGVSSCQQCLAVSPMCAWCSDEALPLGSPRCDLKENLLKDNCAPESIEFPVSEARVLEDRPLSDKGSGDSSQVTQVSPQRIALRLRPDDSKNFSIQVRQVEDYPVDIYYLMDLSYSMKDDLWSIQNLGTKLATQMRKLTSNLRIGFGAFVDKPVSPYMYISPPEALENPCYDMKTTCLPMFGYKHVLTLTDQVTRFNEEVKKQSVSRNRDAPEGGFDAIMQATVCDEKIGWRNDASHLLVFTTDAKTHIALDGRLAGIVQPNDGQCHVGSDNHYSASTTMDYPSLGLMTEKLSQKNINLIFAVTENVVNLYQNYSELIPGTTVGVLSMDSSNVLQLIVDAYGKIRSKVELEVRDLPEELSLSFNATCLNNEVIPGLKSCMGLKIGDTVSFSIEAKVRGCPQEKEKSFTIKPVGFKDSLIVQVTFDCDCACQAQAEPNSHRCNNGNGTFECGVCRCGPGWLGSQCECSEEDYRPSQQDECSPREGQPVCSQRGECLCGQCVCHSSDFGKITGKYCECDDFSCVRYKGEMCSGHGQCSCGDCLCDSDWTGYYCNCTTRTDTCMSSNGLLCSGRGKCECGSCVCIQPGSYGDTCEKCPTCPDACTFKKECVECKKFDRGALHDENTCNRYCRDEIESVKELKDTGKDAVNCTYKNEDDCVVRFQYYEDSSGKSILYVVEEPECPKGPDILVVLLSVMGAILLIGLAALLIWKLLITIHDRKEFAKFEEERARAKWDTANNPLYKEATSTFTNITYRGT
notes: whole, on cells; Control of the co-immunoprecipitation; also called other integrins (anti-β3)
B5: IL11 receptor of DU145 cells (receptor, human, UniProt Q14626 23-422, looked up)
chain: SSPCPQAWGPPGVQYGQPGRSVKLCCPGVTAGDPVSWFRDGEPKLLQGPDSGLGHELVLAQADSTDEGTYICQTLDGALGGTVTLQLGYPPARPVVSCQAADYENFSCTWSPSQISGLPTRYLTSYRKKTVLGADSQRRSPSTGPWPCPQDPLGAARCVVHGAEFWSQYRINVTEVNPLGASTRLLDVSLQSILRPDPPQGLRVESVPGYPRRLRASWTYPASWPCQPHFLLKFRLQYRPAQHPAWSTVEPAGLEEVITDAVAGLPHAVRVSARDFLDAGTWSTWSPEAWGTPSTGTIPKEIPAWGQLHTQPEVEPQVDSPAPPRPSLQPHPRLLDHRDSVEQVAVLASLGILSFLGLVAGALALGLWLRLRRGGKDGSPKPGFLASVIPVDRRPGAPNL
notes: whole, on cells; Unrelated transmembrane receptor, control of the co-immunoprecipitation

Assay [1] has as its target B3. In words: ELISA, His-tag protein on coated synthetic peptide (FIG. 3A). Here is the method:
(§1) Synthetic tumor-homing peptide ([…]; SEQ ID NO:1) or PSI-derived peptide ([…]; SEQ ID NO:23) were coated on microtiter plates followed by blocking, and washing. The following recombinant His-tag proteins were added to the coated plates: rCRKL, rCRKL-SH2 domain, rCRKL-SH3 (N) domain, and rCRKL-SH3 (C) domain. An unrelated control protein (α2-Heremans-Schmid glycoprotein; AHSG) served as a negative control. The mixtures were incubated, washed, and labeled with the appropriate antibodies. Secondary antibodies conjugated to horse-radish peroxidase (HRP) were added followed by adding TMB substrate (Calbiochem), and analyzed by an automated ELISA reader (Bio-Tek). To determine the inhibitory activity of the tumor-homing peptide, the PSI-derived peptide, or the phage clone displaying the corresponding tumor-homing peptide were incubated with the rCRKL-SH3 (C) domain. Unrelated cyclic peptide sequences and insertless phage (fd-tet) served as negative controls. The admixtures were incubated and added to wells coated with the tumor-homing peptide. After incubation, the wells were washed, labeled with the appropriate antibodies, and processed as above.

For assay [2], the target named is B3. As to the kind of experiment: ELISA, His-tag protein on coated synthetic peptide. Here is the method: as §1
For assay [3], the target named is T1, β1 integrin of DU145 cells (membrane fraction / cell surface) (human, UniProt P05556 21-798).
T1 construct: Native β1 chain of human DU145 cells
In words: reciprocal co-immunoprecipitation, DU145 membrane fractions.

Assay [4] deals with T2, β5 integrin of DU145 cells (human, UniProt P18084 24-799).
T2 construct: whole, on cells; Control of the co-immunoprecipitation; also called other integrins (anti-β5)
Described as above.

In assay [5] the target is B5. Described as above.
Assay [6] concerns the target B4. The assay is described as above.
Another assay deals with T3, αvβ5 integrin (Chemicon) (UniProt P06756 31-1048; P18084 24-799).
T3 construct: Bought protein coated at 1 µg/well; also called control integrin
As to the kind of experiment: CRKL on wells coated with integrin at 1 µg/well, anti-CRKL detection (FIG. 5). Here is the method: (§2) Phage binding assays on purified proteins were carried out as described (Giordano et al. 2001). Recombinant proteins were coated on microtiter wells as previous described (Cardo-Vila et al., 2003; Smith and Scott, 1993). Briefly, proteins were immobilized on microtiter wells overnight at 4° C. 50 μl of 1 μg/ml in PBS. Wells were washed twice with PBS, blocked with PBS containing 3% BSA for 2 hours at room temperature, and incubated with 10⁹ T.U. wild-type tumor-homing phage ([…]; SEQ ID NO:1), scrambled phage ([…] (SEQ ID NO:26), […] (SEQ ID NO:27), […] (SEQ ID NO:29), […] (SEQ ID NO:30)), mutant phage ([…] (SEQ ID NO:25), […] (SEQ ID NO:28)), PSI-derived cyclic phage ([…]; SEQ ID NO:23) or fd-tet phage in 50 μl of PBS containing 1.5% BSA. After 1 hour at room temperature, wells were washed ten times with PBS and phage were recovered by bacterial infection. ELISA with polyclonal anti-CKRL confirmed the presence and concentration of the CKRL recombinant proteins on the wells. To test the binding of the tumor-homing phage to SH3 containing proteins, microtiter-wells were coated at 4° C. overnight with 250 μg/ml of recombinant gst-SH3 domains (CKRL-D1, CKRL-D2, grb2-D1, grb2-D2, Lyn, src; Pronomics), rCKRL protein, and negative controls gst or BSA. […] After 3 hours, binding of CKRL to integrins was detected by using an anti-CKRL antibody followed by an HRP-conjugated anti-rabbit IgG. […]

The target in another assay is T4, αvβ3 integrin (Chemicon) (UniProt P06756 31-1048; P05106 27-788).
T4 construct: Bought protein coated at 1 µg/well; also called control integrin
The description is as above. The protocol:
as §2

T1 sequence (P05556 21-798 limits assumed): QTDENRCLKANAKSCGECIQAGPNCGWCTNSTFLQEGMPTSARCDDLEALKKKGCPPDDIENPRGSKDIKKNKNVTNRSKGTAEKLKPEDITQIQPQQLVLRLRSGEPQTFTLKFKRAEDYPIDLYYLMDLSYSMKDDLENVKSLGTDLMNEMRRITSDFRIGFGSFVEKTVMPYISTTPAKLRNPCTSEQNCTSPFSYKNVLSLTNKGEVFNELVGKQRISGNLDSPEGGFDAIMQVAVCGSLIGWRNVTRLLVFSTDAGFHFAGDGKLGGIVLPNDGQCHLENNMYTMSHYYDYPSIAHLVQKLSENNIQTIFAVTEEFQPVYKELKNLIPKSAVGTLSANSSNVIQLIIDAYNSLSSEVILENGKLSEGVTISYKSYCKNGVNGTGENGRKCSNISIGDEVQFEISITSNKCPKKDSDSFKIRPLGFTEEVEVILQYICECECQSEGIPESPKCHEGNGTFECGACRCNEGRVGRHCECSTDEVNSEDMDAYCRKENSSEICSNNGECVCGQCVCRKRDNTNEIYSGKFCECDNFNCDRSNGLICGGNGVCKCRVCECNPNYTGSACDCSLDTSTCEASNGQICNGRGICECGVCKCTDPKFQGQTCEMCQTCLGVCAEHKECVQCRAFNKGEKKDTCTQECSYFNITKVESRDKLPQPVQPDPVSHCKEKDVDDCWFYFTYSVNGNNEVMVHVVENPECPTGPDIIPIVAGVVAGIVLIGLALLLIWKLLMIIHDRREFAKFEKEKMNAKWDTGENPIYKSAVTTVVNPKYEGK
T2 sequence (P18084 24-799): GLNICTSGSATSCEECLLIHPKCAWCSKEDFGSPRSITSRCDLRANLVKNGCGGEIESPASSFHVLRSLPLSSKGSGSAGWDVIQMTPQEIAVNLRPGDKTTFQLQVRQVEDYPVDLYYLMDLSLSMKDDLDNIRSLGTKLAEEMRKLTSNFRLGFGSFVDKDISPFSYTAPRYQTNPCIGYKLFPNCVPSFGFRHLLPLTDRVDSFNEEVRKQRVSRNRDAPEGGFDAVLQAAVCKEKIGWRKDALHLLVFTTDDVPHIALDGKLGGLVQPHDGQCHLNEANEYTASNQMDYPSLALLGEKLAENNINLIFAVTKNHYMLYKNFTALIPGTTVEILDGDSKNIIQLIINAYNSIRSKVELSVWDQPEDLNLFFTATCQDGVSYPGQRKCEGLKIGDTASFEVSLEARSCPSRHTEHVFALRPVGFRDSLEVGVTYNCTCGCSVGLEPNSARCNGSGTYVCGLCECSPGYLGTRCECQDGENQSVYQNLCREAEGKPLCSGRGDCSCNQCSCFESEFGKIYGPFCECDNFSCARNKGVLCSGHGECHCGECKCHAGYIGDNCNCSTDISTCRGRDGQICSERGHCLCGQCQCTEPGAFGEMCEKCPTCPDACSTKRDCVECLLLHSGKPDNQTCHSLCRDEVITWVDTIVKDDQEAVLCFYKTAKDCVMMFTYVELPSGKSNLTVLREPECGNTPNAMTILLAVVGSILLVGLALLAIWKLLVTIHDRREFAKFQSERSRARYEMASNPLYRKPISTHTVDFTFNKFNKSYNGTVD
T3 sequence (P06756 31-1048, chain 1 of 2): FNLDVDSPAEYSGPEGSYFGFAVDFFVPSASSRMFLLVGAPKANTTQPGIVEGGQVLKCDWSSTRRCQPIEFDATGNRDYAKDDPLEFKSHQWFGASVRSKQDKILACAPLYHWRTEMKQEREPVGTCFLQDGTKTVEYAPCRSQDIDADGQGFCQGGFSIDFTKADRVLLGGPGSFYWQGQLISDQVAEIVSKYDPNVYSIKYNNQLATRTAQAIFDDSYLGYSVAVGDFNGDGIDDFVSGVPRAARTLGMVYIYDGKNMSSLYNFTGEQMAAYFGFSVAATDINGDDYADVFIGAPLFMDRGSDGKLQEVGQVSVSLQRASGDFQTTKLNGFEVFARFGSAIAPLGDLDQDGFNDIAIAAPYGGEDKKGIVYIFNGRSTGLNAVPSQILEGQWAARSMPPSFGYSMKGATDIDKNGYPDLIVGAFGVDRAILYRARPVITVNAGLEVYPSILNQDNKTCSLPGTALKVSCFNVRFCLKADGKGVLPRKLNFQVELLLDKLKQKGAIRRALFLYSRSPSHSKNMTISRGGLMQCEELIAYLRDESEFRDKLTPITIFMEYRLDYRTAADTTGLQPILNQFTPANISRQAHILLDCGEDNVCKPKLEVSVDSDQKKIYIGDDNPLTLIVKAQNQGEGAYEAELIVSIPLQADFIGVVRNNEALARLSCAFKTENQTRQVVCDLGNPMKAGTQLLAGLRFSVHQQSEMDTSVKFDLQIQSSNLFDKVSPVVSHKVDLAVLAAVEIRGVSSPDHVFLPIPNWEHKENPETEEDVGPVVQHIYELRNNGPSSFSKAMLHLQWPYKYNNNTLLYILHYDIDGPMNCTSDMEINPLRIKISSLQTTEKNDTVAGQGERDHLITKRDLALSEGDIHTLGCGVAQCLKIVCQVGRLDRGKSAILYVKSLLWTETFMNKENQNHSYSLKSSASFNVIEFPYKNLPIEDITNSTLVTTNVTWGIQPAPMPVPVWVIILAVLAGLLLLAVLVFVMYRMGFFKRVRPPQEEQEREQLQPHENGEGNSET
T3 sequence (P18084 24-799, chain 2 of 2): as the sequence (P18084 24-799) above
T4 sequence (P06756 31-1048, one chain of several): as the sequence (P06756 31-1048, chain 1 of 2) above

For YRCTLNSPFFWEDMTHECHA (disulfide 3-18 (inferred), also called PSI domain-mimic peptide) [synthetic tumor-homing peptide YRCTLNSPFFWEDMTHECHA (SEQ ID NO:1)], the binding result in assay [1] is recorded as “binds”.

B1: synthetic PSI-derived peptide NSTFLQEGMPTSA (SEQ ID NO:23) (peptide)
peptide: NSTFLQEGMPTSA
notes: also called β1 integrin PSI-derived peptide
As for B1, in assay [2], the binding result is “binds”.

B2: CRKL of DU145 cells (cell extract, membrane fraction, cell surface or serum-free condition medium) (other)
chain: MSSARFDSSDRSAWYMGPVSRQEAQTRLQGQRHGMFLVRDSSTCPGDYVLSVSENSRVSHYIINSLPNRRFKIGDQEFDHLPALLEFYKIHYLDTTTLIEPAPRYPSPPMGSVSAPNLPTAEDNLEYVRTLYDFPGNDAEDLPFKKGEILVIIEKPEEQWWSARNKDGRVGMIPVPYVEKLVRSSPHGKHGNRNSNSYGIPEPAHAYAQPQTTTPLPAVSGSPGAAITPLPSTQNGPVFAKAIQKRVPCAYDKTALALEVGDIVKVTRMNINGQWEGEVNGRKGLFPFTHVKIFDPQNPDENE
notes: Native protein from human DU145 prostate cancer cells; also called secreted CRKL; extracellular CRKL
Regarding B2, the binding result in assay [3] is on record as “binds”; in assay [4], “no binding”; in assay [5] it was “no binding”; in assay [6], “no binding”.

As to B3, the binding result with αvβ5 integrin (Chemicon) and with αvβ3 integrin (Chemicon) was “no binding” each time.

B4: the binding result in assay [3] was “no binding”.

Take B5: the binding result in assay [3] is “no binding”.
